B1: refolded methionine adenosyltransferase II catalytic α2 subunit (human MAT2A) (enzyme)
chain: not shown
notes: human MAT2A ORF from lymphocyte RNA, non-tagged; all cloned ORFs carried A233V and G193S against previously reported cDNAs; Dimer by gel filtration at low concentration, dimer and tetramer at higher concentration; Runs as a double band (α2 and α2′) on SDS-PAGE; The ITC methods say only 'α2 subunit'; also called MAT α2
B2: ΔS16 truncated β subunit of methionine adenosyltransferase II (domain or fragment, human)
chain: GSHSCRLVEEEVNIPNRRVLVTGATGLLGRAVHKEFQQNNWHAVGCGFRRARPKFEQVNLLDSNAVHHIIHDFQPHVIVHCAAERRPDVVENQPDAASQLNVDASGNLAKEAAAVGAFLIYISSDYVFDGTNPPYREEDIPAPLNLYGKTKLDGEKAVLENNLGAAVLRIPILYGEVEKLEESAVTVMFDKVQFSNKSANMDHWQQRFPTHVKDVATVCRQLAEKRMLDPSIKGTFHWSGNEQMTKYEMACAIADAFNLPSSHLRPITDSPVLGAQRPRNAQLDCSKLETLGIGQRTPFRIGIKESLWPFLIDKRWRQTVFH

What was measured:
[1] = biological target: the molecule itself; assay: SEC; analytical gel filtration on Superose 12 10/300 GL, refolded α2 50 µg injected, 20 mM Tris/HCl pH 8, 10 mM MgSO4, 150 mM KCl; detection by MAT activity and dot blot
[2] = biological target: the molecule itself; assay: SEC; analytical gel filtration on Superose 12 10/300 GL, refolded α2 at higher protein concentration (200 µg injected), 20 mM Tris/HCl pH 8, 10 mM MgSO4, 150 mM KCl; detection by MAT activity and dot blot
[3] = biological target: B1; assay: SEC; equimolar refolded α2 and β (wild type, mutant or truncated) mixed 1 h at 4°C, hetero-oligomer isolated on Biogel A 1.5 m in 50 mM Tris/HCl pH 8, 10 mM MgSO4, 50 mM KCl; peak on SDS-PAGE, densitometric scanning of Coomassie-stained bands; conditions: both partners purified

Row | (α2+α2′)/β subunit ratio [3] | Binder | stoichiometry N [1] | stoichiometry N [2]
1 | – | B1 | 2 | 4
2 | 2 | B2 | – | –
